Measurements reported in the supplement of paper PMC9170038.

Tested on: MS2 coat protein
Assay: apparent KD of MS2 coat protein; higher = weaker reporter binding
Settings: Eterna round: R107
How it was run: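 Designed RNA switches were made by on-chip transcription from Illumina sequencing clusters and then titrated with SNAP-549-labelled MS2 coat protein. Twofold steps ran from 0.7 or 1.5 nM to 3 µM, each lasting 0.8–1.5 h early and 10–20 min late, in 100 mM Tris-HCl pH 7.5, 80 mM KCl, 4 mM MgCl2, without or with constant ligand. Apparent KD is the per-design median of normalised cluster binding-curve fits.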

[1] = input ligand: theophylline 20 uM
[2] = input ligand: theophylline 2 mM
[3] = input ligand: tryptophan 2.4 mM

| Sequence | apparent KD of MS2 coat protein (input ligand: arginine 13.2 mM) | apparent KD of MS2 coat protein [1] | apparent KD of MS2 coat protein [2] | apparent KD of MS2 coat protein [3] | apparent KD of MS2 coat protein (input ligand: none) |
| --- | --- | --- | --- | --- | --- |
| GGGCGCGUGGACUGGCGUGCUCCGCUCCGUCGAGGACCGGUACGGCCGCCACUCGACAUGAGGAUCACCCAUGUGUGAGCUCGCG [#1 Exclusion - Tryptophan A Attempt #17 (HarryS)] | 62.9 nM | 229 nM | 259 nM | – | – |
| AUUAAUUGUCGUGAUACCAGACUUACAUGAGGAUCACCCAUGUUACUUAAGAUUUUUGUUGUCCCUUGGCAGCACUUUUUAAUUA [JR_Nu_ExcTheophyB_Sub024] | 24.5 nM | 33 nM | – | 23.3 nM | – |
| CUCUGAGUGAGAAAUCACUCAGAGGCGGAUACCAGCGAGGUCCAUCGCCCUUGGCAGCCGAACAUGAGGAUCACCCAUGUCGGUA [#1 Same State - Theophylline A Attempt #21 (HarryS)] | 9.9 nM | 14 nM | 14.5 nM | 9.34 nM | 10.8 nM |
| AAAUAAAUAACUGAUACCAGUGUACUGACAUGAGGAUCACCCAUGUUGGGUUUGGUUGUACACCCUUGGCAGCAGAAAUAUAAAA [test (nupak] | 15.4 nM | 20.6 nM | – | 15.1 nM | – |
| AUUAACUGGUAAGAUACCAGAGUCGGGAUCUACAUGAGGAUCACCCAUGUUCUAAAGUCGCUCCCUUGGCAGCUUCAAUGAGUCG [theeternabot_sameState_MS2_Theo_B_27] | 23.3 nM | 45.9 nM | – | 34 nM | – |
| AGACAUGAGGAUCACCCAUGUAGCAUGGAUACCAGAUGCAGAUUUAUCCCUUGGCAGCUGUGGUAAAGUGAUGCAUUGCUCCUAG [Exclusion - Theophylline A (Freestyle 6)] | 18.8 nM | 31 nM | 27.1 nM | 23.8 nM | 22.6 nM |
| UUACCGUAAGGUAUACCGGUCCACAAUAAUCGAGGACCGGUACGGCCGCCACUCGAUGUGUGAUCACAUGAGGAUCACCCAUGUA [Tryptophan A 20] | 99.4 nM | 460 nM | 562 nM | – | – |
| GUCCGACAUGAGGAUCACCCAUGUACUGAAGGAGCGGACAAAUGUCCAGGUAGGUCGCAGCUAUAUGGUGUGGACCGAUCCGGAC [Ustius] | 19 nM | 27.2 nM | 23.6 nM | 22.4 nM | 22 nM |
| AAUAUAUAGACGGCCGCCACUGGAAUUAAUACAUGAGGAUCACCCAUGUGAAGAGGAUAAUAACACAGGACCGGGUCUUCAUGUA [SS Tryp B Tesla 1.2] | 68.5 nM | 137 nM | 452 nM | 138 nM | 37.4 nM |
| AACAGUUGGUCGGCCGCCACUACAUGAGGAUCACCCAUGUAGCGCGUUCUGCUCCAGGGCUCAUCUAGGACCGGGACACGAGUGU [Raa] | 12.2 nM | 21.4 nM | 14.5 nM | – | – |
| UCGCAUUGCUGCGAUACCAGACAUGAGGAUCACCCAUGUACCAAGAAAACGUACAUAAAUGUCCCUUGGCAGCGCAGCAAUGCGU [MAT - Exclusion Theophlline B - Mod of Eli - D26] | 148 nM | 656 nM | – | 631 nM | – |
| GGAUAGGACAGAAGGAGCGUGAGAUGCAAAGCUUCAUUCCUCACAUGAGGAUCACCCAUGUCACAGGUAGGUCGCUGUCCUAUCG [#19 Exclusion - Arginine B] | 78.6 nM | 106 nM | 111 nM | 78.9 nM | 102 nM |
| AGUCUAUGGAGAGAUACCAGUGAGAGCCAUAGACAUGAGGAUCACCCAUGUGACAUGGAUCACCCUUGGCAGCUCAACGAGCUCU [#20 Same State - Theophylline B] | 41 nM | 106 nM | – | 87.1 nM | – |
| CAAUAUAUAACGGCCGCCACUUACUCAUGAGGUAACAACAUGAGGAUCACCCAUGUUUGAGGAUCAAGGACCGGGUUAUAUAUUG [AstrosSSTry#19] | 29.3 nM | 33 nM | 27.1 nM | 18.4 nM | 28 nM |
| UGGCAAGAGGGAAGGAGCGUCAGCUGAGUCACAUGAGGAUCACCCAUGUCGCACAUAGUGUGACAGGUAGGUCGCCCUCUGCCGU [Vesosocera] | 70 nM | 152 nM | 207 nM | 122 nM | 122 nM |
| UCGCCCAGGUAGGCUUAAUGGGAUAUGGAAGGAGCGCUGAUGCCAGCAGGUAGGUCGCCAACGGACAUGAGGAUCACCCAUGUAC [Same State - Arginine A (Freestyle 4)] | 24.7 nM | 34.6 nM | 27.1 nM | 22.7 nM | 18 nM |
| UUCAUGAGGAUUGAUACCAGCCACCAACAUGAGGAACUUACAUGAGGAUCACCCAUGUGAGGCCCUUGGCAGCAAGCAUACAUGA [Exclusion Theophylline B 3] | 10.1 nM | 16.7 nM | 48.5 nM | 11.5 nM | 10.6 nM |
| CCAGCCCUUCUAGAUACCAGCUUUCAAUAUAAGACAACUCACAUGAGGAUCACCCAUGUUAGCCCUUGGCAGCUAAGAUCCACAA [theeternabot_exclusion_MS2_Theo_B_32] | 46.6 nM | 67 nM | – | 48.5 nM | – |
| UUAUAUACUACGGCCGCCACUGAACAUGAGGAUCACCCAUGUAAUGUUCAGAUUUUUUUUUUUUACAGGACCGGGUAGAAUUAAA [Tryptophan B 2] | 67.9 nM | 127 nM | 206 nM | – | – |
| ACACGAAGCUGAAGGAGCGUGGUAUAAUUUUUUACAUGAGGAUCACCCAUGUCUCAUUUUUCACAGGUAGGUCGCAGAUGCGUGA [JR_SSArginiB_Sub015] | 54.5 nM | 81.6 nM | 117 nM | 78.7 nM | 71.5 nM |
| AAAAUCCUACCUGAGGAUCACCCGGGUGAAGGAGCGCCCGAAAGGGCAGGUAGGUCGCACCUGAGGAUCACCCUGGUAACCUAAA [ArgEX 12 #DoubleMS2 #OpenEnded #AlternativeMS2] | 41.7 nM | 187 nM | 454 nM | 159 nM | 179 nM |
| AAGACAUGAGGAUCACCCAUGUCGUGUGAACGAGGACCGGUACGGCCGCCACUCGUUUGAAAAUAAACGAAUGCGGCCUGGGAAA [Exclusion Tryp A GF1] | 11.1 nM | 13.4 nM | 12.3 nM | – | – |
| GUCUCAGACCGAGAUACCAGCUGGGUUUCCCACAUGAGGAUCACCCAUGUAUUCAGAUUAAGCCCUUGGCAGCUCAUCUAGGUCC [theeternabot_sameState_MS2_Theo_B_44] | 21.8 nM | 20.6 nM | – | 16.6 nM | – |
| AUAAGUAAUGUUACGUGUUUAAUUGCAGAUACCAGACUAUACGUUGUCCCUUGGCAGCUGAAUUACAUGAGGAUCACCCAUGUUG [JR_ExcTheophyA_Sub005] | 19.4 nM | 28.5 nM | – | 25.7 nM | – |
| CAGGUCAGGGCGGCCGCCACUGUGGCUACGGUACAUGAGGAUCACCCAUGUUUGUGGUUGAUCUACAGGACCGGGCCCUAACACG [Beabe] | 1080 nM | 214 nM | 757 nM | 126 nM | 430 nM |
| UGUAUGUGAUCUGAUACCAGUCCAACUGGUAAAGCAUGAGGAACACCCAUGCAAAAUUGGGACCCUUGGCAGCAGAUCGCAUACU | 169 nM | 255 nM | 34.6 nM | 278 nM | 247 nM |
| CUCCCGUGGUCGGCCGCCACUGGAGGCCUCGCGCGACAUGAGGAUCACCCAUGUUGGCCCGGCCUCAGGACCGGGAUCGCGUGAG [#1 Same State - Tryptophan B Attempt #7 (HarryS)] | 11.2 nM | 17.9 nM | 11.9 nM | 10.9 nM | 13.7 nM |
| ACGUAAUGCAGAAGGAGCGUCUGAUUUUAACAUGAGGAUCACCCAUGUAAUAUUUAUGGUAGACAGGUAGGUCGCUGAAGUACGA [JR_ExcArginiB_Sub002] | 14.8 nM | 16.8 nM | 15.2 nM | 14.8 nM | – |
| AGCGGCUCGAAAGAGUCGCACUCAUGUGAAGGAGCGCCCGUAAGGGCAGGUAGGUCGCACAUGAGGAUCACCCAUGUACCUUCUA [MAT - Exclusion Arginine A - Mod of Eli - D20] | 87.1 nM | 255 nM | 316 nM | 241 nM | 205 nM |
